Laboratory results reported in paper PMC3120129 (Biochemistry, 2011).

B1: E2 domain of APLP1, construct APLP1_(285–499) (crystallised) (domain or fragment, human, UniProt P51693 285-499, looked up)
chain: TPTPRPTDGVDIYFGMPGEISEHEGFLRAKMDLEERRMRQINEVMREWAMADNQSKNLPKADRQALNEHFQSILQTLEEQVSGERQRLVETHATRVIALINDQRRAALEGFLAALQADPPQAERVLLALRRYLRAEQKEQRHTLRHYQHVAAVDPEKAQQMRFQVHTHLQVIEERVNQSLGLLDQNPHLAQELRPQIQELLHSEHLGPSELEAPA

Assays:
[1] = target: E2 domain of amyloid precursor protein (APP), construct APP_(346–548), native (human) (UniProt P05067); assay: AUC
[2] = target: the molecule itself; assay: crystal structure

Molecule	Kd [1] [µM]	stoichiometry N [1]	binding result [2]
E2 domain of amyloid precursor protein (APP), construct APP_(346–548), native (from UniProt P05067-8 346-548) (domain or fragment)	9.2	2	
B1			binds
